Drawing on US12398199 (SYSVAX, dated 2025), this text covers Kd, koff and kon for four molecules.

The labels stand for the following.
B1: NBS1-3 (VHH)
VHH: QVQLVESGGGLVQPGASLRLSCAASGRTFSSTGMGWFRQAPGKEREFVAAISGDGDTTYYADSVKGRFTISRDNAKNTVYLQMNSLKPWDTAVYYCASTRFTWGLYSDFVNSYEYDAWGQGTPVTVSS
notes: also called nano antibody NBS1-3
B2: NBS1-57 (VHH)
VHH: QVQLVESGGGLVQPGASLRLFCVASGRTFSSTGMGWFRQAPGKEREFVAAISGPGDTTYYVDSVKGRFTISRDNAKNTVYLQMNSLKPEDTAVYYCASAGFTWGLYSDFVNSYEYNYWGQGTPVTVSS
notes: also called nano antibody NBS1-57
B3: NBS1-10 (VHH)
VHH: QVQLVESGGGLVQPGGSLRLSCAASGRTFSSTGMGWFRQGPGKEREFVAAISGDGDTTYYADSVKGRFTISRDNAKNTVYLQMNSLKPEDTAVYYCASARFTWGLYSDFVNSYEYDAWGQGTPVTVSS
notes: also called nano antibody NBS1-10
B4: NBS1-2 (VHH)
VHH: QVQLVESGGGLVQAGDSLRLACAATGRTLSNYIMGWFRQAPGKEPLFVAAISRSGVITKYADSVEGRFTISRDNAKNTAYLQMTSLEPEDTAVYYCAASSSKYMATREYDYWGQGTQVTVSS
notes: also called XBS1-2; nano antibody NBS1-2

For the test, the target named is antigen RBD-FC protein (SARS-CoV-2 RBD protein) (SARS-CoV-2, UniProt P0DTC2 319-541). The test is described as follows: thin film interference (Gator), RBD-Fc captured on anti-human Fc probe, nano antibody in solution. The method, then: In this example, an instrument Gator® probe life was used to detect an intermolecular interaction with a thin film interference method. A sample to be detected with a concentration not less than 80% and an antigen RBD-FC protein (SARS-CoV-2 RBD protein) with a concentration not less than 90% were prepared.
2. Experimental Method: 1) Detection method of NBS1-2 sample: the nano antibody was detected with an immobilized antigen RBD-Fc (100 nM); the probe type used was the anti-human Fc antibody; and the NBS1-2 was diluted to 60,000 nM, 30,000 nM, 15,000 nM, 7,500 nM, 3,750 nM, 1,875 nM, 937.5 nM, and 0 nM with the Q buffer. 2) Detection method of NBS1-3 sample: the nano antibody was detected with the immobilized antigen RBD-Fc (100 nM); the probe type used was the anti-human Fc antibody; and the NBS1-3 was diluted to 25 nM, 12.5 nM, 6.25 nM, 3.18 nM, 1.56 nM, 0.78 nM, and 0 nM with the Q buffer. 3) Detection method of NBS1-10 sample: the nano antibody was detected with the immobilized antigen RBD-Fc (100 nM); the probe type used was the anti-human Fc antibody; and the NBS1-10 was diluted to 25 nM, 12.5 nM, 6.25 nM, 3.18 nM, 1.56 nM, 0.78 nM, and 0 nM with the Q buffer.
4) Detection method of NBS1-57 sample: the nano antibody was detected with the immobilized antigen RBD-Fc (100 nM); the probe type used was the anti-human Fc antibody; and the NBS1-57 was diluted to 25 nM, 12.5 nM, 6.25 nM, 3.18 nM, 1.56 nM, 0.78 nM, and 0 nM with the Q buffer.
For B1, binding was characterised by a dissociation constant (Kd) of 0.0301 nM, the off-rate (koff) worked out at 7.16e-05 s⁻¹ and the kon came out at 2.38e+06 M⁻¹ s⁻¹.

The molecule B2 registered a Kd of 1.29 nM, a koff of 0.00491 s⁻¹ and a kon of 3.8e+06 M⁻¹ s⁻¹.

In turn, B3 gave a Kd of 1.31 nM, a koff of 0.00311 s⁻¹ and a kon of 2.37e+06 M⁻¹ s⁻¹.

Molecule B4 displayed a Kd of 1410 nM, a koff of 0.00127 s⁻¹ and a kon of 895 M⁻¹ s⁻¹.

The term Kd denotes the constant that tells how readily two partners part at equilibrium. Read a low Kd as tighter binding. The koff is a measure of how fast the partners let go of each other. Low values mean slow dissociation, high ones fast dissociation. Broadly, the kon is a measure of how fast the partners come together. High values mean faster complex formation, low ones slower complex formation.
